# Molecular target: double-stranded RNA adenosine deaminase (dsrad, 140 kDa Z-DNA binding protein) (Gallus gallus) (UniProt A0A8V1AB28)
# Assay: competition
# Settings: bandshift competition
# Chain of UniProt A0A8V1AB28 (A0A8V1AB28 entry or part of it): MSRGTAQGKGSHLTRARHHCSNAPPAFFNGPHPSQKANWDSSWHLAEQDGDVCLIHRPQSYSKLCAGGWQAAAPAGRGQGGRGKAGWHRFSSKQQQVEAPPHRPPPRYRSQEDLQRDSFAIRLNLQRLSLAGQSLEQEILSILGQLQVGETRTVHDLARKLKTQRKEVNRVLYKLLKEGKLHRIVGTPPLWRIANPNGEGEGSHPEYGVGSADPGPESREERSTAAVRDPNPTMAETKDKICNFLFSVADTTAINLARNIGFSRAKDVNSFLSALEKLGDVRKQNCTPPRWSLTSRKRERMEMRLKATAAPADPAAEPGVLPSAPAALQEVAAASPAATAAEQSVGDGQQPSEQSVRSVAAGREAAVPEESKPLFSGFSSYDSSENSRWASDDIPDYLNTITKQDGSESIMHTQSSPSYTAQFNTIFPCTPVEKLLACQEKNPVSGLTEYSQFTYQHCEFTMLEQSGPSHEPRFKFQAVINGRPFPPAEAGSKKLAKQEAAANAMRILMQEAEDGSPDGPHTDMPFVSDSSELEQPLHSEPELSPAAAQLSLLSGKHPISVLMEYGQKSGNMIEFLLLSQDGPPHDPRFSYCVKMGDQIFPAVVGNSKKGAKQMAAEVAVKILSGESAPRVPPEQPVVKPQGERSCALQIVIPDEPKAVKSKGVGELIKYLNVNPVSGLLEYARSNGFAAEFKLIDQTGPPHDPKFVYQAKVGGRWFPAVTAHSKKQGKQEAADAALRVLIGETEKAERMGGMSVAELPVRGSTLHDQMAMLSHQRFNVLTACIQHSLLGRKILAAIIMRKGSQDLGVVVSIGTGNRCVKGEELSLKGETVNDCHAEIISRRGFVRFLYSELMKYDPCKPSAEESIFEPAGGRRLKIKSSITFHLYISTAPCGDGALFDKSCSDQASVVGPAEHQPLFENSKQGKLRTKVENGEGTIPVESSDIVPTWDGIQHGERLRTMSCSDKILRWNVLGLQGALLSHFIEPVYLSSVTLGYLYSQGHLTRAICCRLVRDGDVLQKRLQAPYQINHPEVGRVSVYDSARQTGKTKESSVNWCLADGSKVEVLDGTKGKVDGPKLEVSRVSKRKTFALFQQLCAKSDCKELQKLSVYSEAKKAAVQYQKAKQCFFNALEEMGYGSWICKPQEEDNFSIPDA
Substance,binding signal (fold weaker than supercoiled) (relaxed with calf thymus topoisomerase I),"binding signal (reference, bacterial superhelical density) [fold]"
pDHg16 relaxed by topoisomerase I,100,
pDHg16 supercoiled plasmid with d(CG)13 insert,,1
